Source: US20110117012A1, “RADIOLABELED GALLIUM COMPLEXES, METHODS FOR SYNTHESIS AND USE FOR PET IMAGING OF EGFR EXPRESSION IN MALIGNANT TUMORS” (priority 2003, published 2011)
Entries after “also recorded” stand apart in the source; their conditions may differ. Like-named read-outs stand apart in the source and are kept apart here.

Experiments:
[1] = type: physicochemical
Method: Analytical liquid chromatography (LC) was performed using a HPLC system from Beckman (Fullerton, Calif., USA) consisting of a 126 pump, a 166 UV detector and a radiation detector coupled in series. Data acquisition and handling was performed using the Beckman System Gold Nouveau Chromatography Software Package. The column used was a Vydac RP 300 Å HPLC column (Vydac, USA) with the dimensions 150 mm×4.6 mm, 5 μm particle size. The applied gradient elution had the following parameters: A=10 mM TFA; B=70% acetonitrile (MeCN), 30% H2O, 10 mM TFA with UV-detection at 220 nm; flow was 1.2 mL/min; 0-2 min isocratic 20% B, 20-90% B linear gradient 8 min, 90-20% B linear gradient 2 min The quantity of ^68Ga-DOTA-hEGF and radio-impurities retained on the column could be obtained by measuring the activity of the sample injected on the column and the fractions collected from the outlet with a crystal scintillation counter. The overall loss on the system was 10%. The measured activity of the fractions of ^68Ga-DOTA-hEGF and hydrophilic radio-impurities were in agreement with the respective values obtained from the HPLC chromatograms. […]
The microwave-accelerated labeling of the conjugates (Scheme 1) was performed using a non-concentrated or a pre-concentrated generator ^68Ga-eluate. […] Pre-concentration of eluate allowed to obtain specific radioactivity of 28 MBq/nmol. […]

A431 cells [2] = assay: Cellular internalization by acid wash, A431 cells; type: cell-based, human
From the text: (§1) The human squamous carcinoma cell line A431 (ATCC, CLR 1555, Rocksville, Md., USA) and the malignant glioma cell line U343MGaC12:6 (Westermark B, Magnusson A, Heldin C H. Effect of epidermal growth factor on membrane motility and cell locomotion in cultures of human clonal glioma cells. J Neurosci Res. 1982; 8(2-3): 491-507) (from now on denoted U343) were used in all cell experiments. This A431 cell line is reported to express approximately 2×10^6 EGFR per cell, and the U343 cell line express approximately 5.5×10^5 EGFR per cell. […]
(§2) Instead of trypsinising the cells, treatment with 0.5 ml ice-cold 0.1 M glycin-HCl buffer, pH 2.5 for 6 min at 0° C. was used to extract the membrane bound fraction of the conjugate. […] The remaining radioactivity, considered to be internalized radioactivity, was collected by treatment with 0.5 ml 1 M NaOH solution at 37° C. for about 60 min. […] The collected fractions were measured in an automated gamma counter.
(§3) In this study, the degree of internalization was estimated by acid wash. Radioactivity, which was removed from cells by an acidic buffer was considered as membrane-bound, and the rest as internalized. […] More than 50% of the radioactivity was internalized at 30 min after the start of incubation in the case of glioma U343 cells.

U343 cells [3] = assay: Cellular internalization by acid wash, U343 cells; type: cell-based, human
From the text: as §1, §2, §3

A431 cells [4] = assay: Cellular retention of radioactivity after interrupted incubation, A431 cells; type: cell-based, human; conditions: 4 hours after interrupted incubation
From the text: as §1, with “cell. The cells were cultured in Ham's F10 medium (Biochrom Kg), supplemented with 10% fetal calf serum (Sigma), L-glutamine (2 mM) and PEST (penicillin 100 IU/ml and streptomycin 100 μg/ml) both from Biochrom Kg. During cell culture and cell experiments (unless otherwise stated) cells were grown at 37° C. in incubators with humidified air, equilibrated with 5% CO2.” for “cell.”
(§4) After the incubation, the cells were washed thoroughly to eliminate unbound conjugate, and the incubation was then continued in fresh cell culture medium. After 0.5-4 h, the cells were trypsinized, counted and measured for radioactivity, as described above.
(§5) An initial drop of radioactivity, which was most likely due to dissociation of membrane-bound conjugates, was followed by a relatively constant amount of cell-bound ^68Ga.

U343 cells [5] = assay: Cellular retention of radioactivity after interrupted incubation, U343 cells; type: cell-based, human; conditions: 4 hours after interrupted incubation
From the text: as §1, with “cell. The cells were cultured in Ham's F10 medium (Biochrom Kg), supplemented with 10% fetal calf serum (Sigma), L-glutamine (2 mM) and PEST (penicillin 100 IU/ml and streptomycin 100 μg/ml) both from Biochrom Kg. During cell culture and cell experiments (unless otherwise stated) cells were grown at 37° C. in incubators with humidified air, equilibrated with 5% CO2.” for “cell.”
as §4, §5

A431 tumor xenografts [6] = tested on: A431 tumor xenografts; design: species or system Balb/c nu/nu mice; conditions: mouse, in vivo, iv, 0.5 h
Method: (§6) The in vivo studies were carried out in adult female Balb/c nu/nu mice (21-25 g) (Möllegård, Denmark) with tumor xenografts. All animals were handled according to the guidelines by the Swedish Animal Welfare Agency, and the experiments were approved by the local Ethics Committee for Animal Research. The mice were injected subcutaneously with A431 tumor cells (approximately 7 million cells per tumor in 100 μl cell culture medium) in both front legs. The tumors were allowed to grow for 12-13 days before the experiments were performed, and had then reached a weight of 0.1-0.8 g.
In order to estimate an influence of amount injected conjugate on uptake in tumors and normal tissues, a biodistribution study was performed. […] The mice were anesthetised by an intraperitoneal injection of a mixture of Rompun (1 mg/ml) and Ketalar (10 mg/ml), 0.2 ml per 10 g of animal weight, and killed by heart puncture. In addition to the tumors, blood, heart, pancreas, spleen, stomach, liver, kidneys, lungs, small and large intestine, muscle, bone and salivary gland were collected, weighed and measured in an automated gamma counter. The tails were also measured for radioactive content, in order to determine the accuracy of the injections. Organ values were calculated as percent of injected activity per g of organ (% IA/g).

A431 tumor xenografts [7] = assay: MicroPET imaging of tumor-bearing mice; type: in vivo
Method: as §6
Imaging was performed on a microPET R4 scanner (Concorde Microsystems, Inc.), with a computer-controlled bed and 10 cm transaxial and 8 cm axial field of view (FOV). […] After completion of the study the animals were decapitated under anesthesia and blood, liver, and kidney samples were collected for radioactivity measurements.
Scatter correction, random counts and dead time correction were all incorporated into the reconstruction algorithm. Radiation attenuation in each animal was measured with two rotating rod sources containing ^68 Ge/^68Ga before tracer injection and the images were corrected for radiation attenuation. […] Pharmacokinetic curves, representing the radioactivity concentrations (percentage of injected dose per gram of tissue), versus time after injection were determined accordingly. […]

^68Ga-DOTA-EGF: recombinant human epidermal growth factor conjugated to the chelator DOTA (one to three DOTA) and labeled with 68Ga; PET tracer
stability in PBS [1]: stable
internalization rate (A431 cells [2]): rapid process
radioactivity internalized (U343 cells [3]; 30 min after the start of incubation): More than 50%
internalization rate (U343 cells [3]; acid wash, compared to A431): faster
cell-associated radioactivity (retention) (A431 cells [4]): more than 70%
cell-associated radioactivity (retention) (U343 cells [5]): more than 70%
radioactivity remaining in the circulation (blood) (A431 tumor xenografts [6]; 0.016 nmol per animal): less than 1 % IA/g
uptake in the A431 tumour xenograft (A431 tumor xenografts [6]; 0.016 nmol per animal): 1.51±0.16 % IA/g
radioactivity remaining in the circulation (blood) (A431 tumor xenografts [6]; 0.16 nmol per animal): less than 1 % IA/g
uptake in the A431 tumour xenograft (A431 tumor xenografts [6]; 0.16 nmol per animal): 2.69±0.29 % IA/g
organ distribution by microPET (A431 tumor xenografts [7]; 0.16 nmol injected, liver, kidneys, tumours, pharmacokinetic curves): Prominent uptake was observed in the liver and kidneys; also recorded: rapid distribution
tumor visualization by microPET (A431 tumor xenografts [7]; 30 min after administration of 2.0 MBq, right and left leg tumors): visible with clear contrast
